Data from article PMC4609988 (Scientific Reports, 2015).
Residue numbers refer to the chain shown, from its start.

Key:
[1] = molecular target: the molecule itself; assay: non-reducing SDS-PAGE; proteins taken from the media of transfected HEK293 cells with streptactin sepharose, SDS-PAGE under non-reduced (NR) and reduced (R) conditions, immunoblot with anti-Ang1 antibody; disulfide-linked oligomers
CMP-Ang1-2 = molecular target: T1, CMP-Ang1-2 (human); assay: negative-stain transmission electron microscopy; purified proteins on carbon-coated copper grids, stained with 0.75% uranyl formate, 120 kV; settings: both partners purified
T1 chain: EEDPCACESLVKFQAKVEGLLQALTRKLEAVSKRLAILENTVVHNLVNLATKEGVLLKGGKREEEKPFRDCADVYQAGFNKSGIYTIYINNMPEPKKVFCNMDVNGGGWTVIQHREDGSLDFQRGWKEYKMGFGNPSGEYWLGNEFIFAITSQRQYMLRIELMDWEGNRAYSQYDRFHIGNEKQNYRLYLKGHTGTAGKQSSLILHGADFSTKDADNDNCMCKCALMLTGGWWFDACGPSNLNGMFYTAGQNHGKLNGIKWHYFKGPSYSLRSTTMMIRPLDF

Fc-Ang1 = molecular target: T2, Fc-Ang1 (human); assay: non-reducing SDS-PAGE; proteins taken from the media of transfected HEK293 cells with streptactin sepharose, SDS-PAGE under non-reduced (NR) and reduced (R) conditions, immunoblot with anti-Ang1 antibody; disulfide-linked oligomers; settings: both partners purified
T2 chain: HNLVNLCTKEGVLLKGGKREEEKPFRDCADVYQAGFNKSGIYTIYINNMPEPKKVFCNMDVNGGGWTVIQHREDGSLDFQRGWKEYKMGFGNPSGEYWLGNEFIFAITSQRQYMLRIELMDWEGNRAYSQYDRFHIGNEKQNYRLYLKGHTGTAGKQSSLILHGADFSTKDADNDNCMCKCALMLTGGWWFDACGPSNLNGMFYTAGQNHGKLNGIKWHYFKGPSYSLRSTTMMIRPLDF

GCN-Ang1 = GCN-Ang1 ( | human); assay: as above; settings: both partners purified
COMP-Ang1 = molecular target: T3, COMP-Ang1 ( | human); assay: as above; settings: both partners purified
T3 chain: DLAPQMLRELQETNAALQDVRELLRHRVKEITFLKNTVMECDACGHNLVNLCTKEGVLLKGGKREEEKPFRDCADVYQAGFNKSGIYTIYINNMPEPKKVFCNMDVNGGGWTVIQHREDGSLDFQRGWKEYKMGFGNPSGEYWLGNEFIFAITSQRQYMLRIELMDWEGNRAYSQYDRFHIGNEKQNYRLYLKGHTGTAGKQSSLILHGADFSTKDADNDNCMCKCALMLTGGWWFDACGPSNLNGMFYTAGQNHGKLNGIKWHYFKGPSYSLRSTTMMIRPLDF

B1: CMP-Ang1-3 (dimeric CMP-Ang1), produced in HEK293 cells (ligand)
chain: T1 chain with C5A
modifications: N-glycan at asparagine 106 (complex tri- (~57%) or tetra- (~25%) antennary type glycans with one or two fucose residues)
stoichiometry N [1]: 2

B2: CMP-Ang1-2 (ligand)
chain: T1 chain
modifications: inter-chain disulfides; N-glycan at Ang1 Asn295 (construct Asn106) / inter-chain disulfides; N-glycan at Ang1 Asn295 (construct Asn106)
stoichiometry N (CMP-Ang1-2): 3

B3: Fc-Ang1 (Fc fusion)
chain: T2 chain
modifications: dimerized through N-terminal human IgG1 Fc; N-glycan at Ang1 Asn295 / dimerized through N-terminal human IgG1 Fc; N-glycan at Ang1 Asn295
stoichiometry N (Fc-Ang1): 2

B4: GCN-Ang1 (ligand)
chain: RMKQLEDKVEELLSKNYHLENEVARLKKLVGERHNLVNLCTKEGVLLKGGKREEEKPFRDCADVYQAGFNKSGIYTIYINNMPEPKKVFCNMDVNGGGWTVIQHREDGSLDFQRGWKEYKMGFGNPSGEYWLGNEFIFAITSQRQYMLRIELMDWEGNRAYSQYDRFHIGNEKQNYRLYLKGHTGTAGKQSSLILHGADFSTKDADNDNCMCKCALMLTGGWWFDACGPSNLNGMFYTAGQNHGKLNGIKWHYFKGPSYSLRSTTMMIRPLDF
modifications: N-glycan at Ang1 Asn295 / N-glycan at Ang1 Asn295
stoichiometry N (GCN-Ang1): 2

B5: COMP-Ang1 (ligand)
chain: T3 chain
modifications: inter-chain disulfides; N-glycan at Ang1 Asn295 (construct Asn109) / inter-chain disulfides; N-glycan at Ang1 Asn295 (construct Asn109)
stoichiometry N (COMP-Ang1): 5
